The text below walks through data of patent US20240101683A1 (published 2024).

Numbering of substitutions follows the chain as printed.

The labels stand for the following.
B1: FWB1904 (antibody, V domains shown)
VH: QVQLVQSGAEVKKPGSSVKVSCKASGYIFTSYNVHWVRQAPGQGLEWIGSIYPDNGDTSYNQNFRGRATITADKSTSTAYMELSSLRSEDTAVYYCARGDFAYWGQGTLVTVSS
VL: DIQMTQSPSSLSASVGDRVTITCKASNGISNDIAWYQQKPGKAPKLLIYSASYRYSGVPSRFSGSGSGTDFTFTISSLQPEDIATYYCQQHSTTPYTFGQGTKLEIK
B2: FWB1921 (antibody, V domains shown)
VH: B1 VH with T58S, S59T, F64Y
VL: B1 VL with A25G, I29V
B3: FWB1906 (antibody, V domains shown)
VH: B1 VH with T58S, F64Y
VL: B1 VL
B4: FWB1911 (antibody, V domains shown)
VH: B1 VH with T58S, F64Y, R65K
VL: B1 VL with I29V, T97S
B5: FWB1912 (antibody, V domains shown)
VH: B1 VH with T58S, F64Y, R65K, F101Y
VL: B1 VL with I29V
B6: FWB1925 (antibody, V domains shown)
VH: B1 VH with T58S, S59T, N61D, Q62E, N63D, F64Y
VL: B1 VL with A25G
B7: FWB1916 (antibody, V domains shown)
VH: B1 VH with T58S, F64Y, R65K
VL: B1 VL
B8: FWB1913 (antibody, V domains shown)
VH: B1 VH with T58S, F64Y, R65K, F101Y
VL: B1 VL with I29V, T97S
B9: FWB1905 (antibody, V domains shown)
VH: B1 VH with T58S, F64Y, R65K
VL: B1 VL with I29V
B10: FWB1918 (antibody, V domains shown)
VH: B1 VH with T58S
VL: B1 VL with A25G
B11: FWB1922 (antibody, V domains shown)
VH: B1 VH with T58S, S59T, F64Y
VL: B1 VL with A25G
B12: FWB1914 (antibody, V domains shown)
VH: B1 VH with T58S, Q62N, F64Y, R65K
VL: DIQMTQSPSSLSASVGDRVTITCKASNGVSNDIAWYQQKPGKAPKLLIYSASYRYSGVPSRFSGSGSGTDFTFTISSLQPEDIATYYCQQHSTTPYTFGQGTKLEIKR
B13: FWB1920 (antibody, V domains shown)
VH: B1 VH with V34I, T58S, F64Y
VL: B1 VL with A25G, I29V
B14: FWB1907 (antibody, V domains shown)
VH: B1 VH with H35N, T58S, Q62N, F64Y, R65K
VL: B1 VL with K24R
B15: FWB1919 (antibody, V domains shown)
VH: B1 VH with T58S, F64Y
VL: B1 VL with K24R, A25G
B16: FWB1908 (antibody, V domains shown)
VH: B1 VH with S31T, T58S, S59T, R65K
VL: B1 VL with A25G, N27Q, I29V, I33V, S56T
B17: FWB1915 (antibody, V domains shown)
VH: B1 VH with T58S, N61D, Q62E, N63D, F64Y, R65K
VL: B1 VL with I29V
B18: FWB1910 (antibody, V domains shown)
VH: B1 VH with S31T, N61D, Q62E, N63D, R65K
VL: B1 VL with A25V, N27Q, I29V, I33A, A34V, S56T
B19: FWB1923 (antibody, V domains shown)
VH: B1 VH with T58S, S59T, N61D, Q62E, N63D, R65K
VL: B1 VL with A25V, N27Q, I29V, I33A, A34V
B20: FWB1924 (antibody, V domains shown)
VH: B1 VH with I51L, N61D, Q62E, N63D, F64Y, R65K
VL: B1 VL with A25V, N27Q, I29V, I33A, A34V

One assay deals with T1, Human FGFR2βIIIb (human, UniProt P21802-21 22-263, limits assumed).
T1 construct: Construct used in the ELISA (tag, Fc, limits) is not described
T1 sequence (P21802 other isoform, or with tags, fused parts or gaps limits assumed): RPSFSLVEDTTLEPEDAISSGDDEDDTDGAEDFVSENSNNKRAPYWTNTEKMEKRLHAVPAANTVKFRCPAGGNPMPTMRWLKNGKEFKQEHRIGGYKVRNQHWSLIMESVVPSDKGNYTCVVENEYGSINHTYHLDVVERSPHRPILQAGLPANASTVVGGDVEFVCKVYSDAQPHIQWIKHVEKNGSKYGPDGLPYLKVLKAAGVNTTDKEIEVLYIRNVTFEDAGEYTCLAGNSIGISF
Description: ELISA, coated antigen, anti-Fab HRP.
As a reminder, the EC50 is the midpoint of the concentration-response curve. Consider B1, for which the midpoint of the response, the EC50, lay at 0.163 nM.

As for B2, a half-maximal response (EC50) required 0.176 nM.

Consider B3, for which the half-maximal effective concentration (EC50) is 0.167 nM.

The molecule B4 showed an EC50 of 0.246 nM.

The molecule B5 displayed an EC50 of 0.207 nM.

In turn, B6 came in with a concentration giving a half-maximal response (EC50) of 0.173 nM.

For the molecule B7, the EC50 is 0.143 nM.

Molecule B8 yielded an EC50 of 0.196 nM.

In turn, B9 displayed a concentration for a half-maximal effect (EC50) of 0.173 nM.

On to B10, for which the 50% effective concentration (EC50) was 0.135 nM.

In the case of B11, the concentration giving a half-maximal response (EC50) is 0.215 nM.

In the case of B12, the EC50 turned out to be 0.203 nM.

B13 gave an EC50 of 0.153 nM.

In turn, B14 gave an EC50 of 0.262 nM.

Molecule B15 displayed a concentration giving a half-maximal response (EC50) of 0.149 nM.

As for B16, the concentration for a half-maximal effect (EC50) amounted to 0.126 nM.

For the molecule B17, the EC50 came out at 0.185 nM.

B18 yielded a 50% effective concentration (EC50) of 0.21 nM.

The target of another assay is T2, Murine FGFR2IIIb (murine, UniProt P21803-2 22-263, limits assumed).
T2 construct: Construct used in the ELISA is not described
T2 sequence (P21803 other isoform, or with tags, fused parts or gaps limits assumed): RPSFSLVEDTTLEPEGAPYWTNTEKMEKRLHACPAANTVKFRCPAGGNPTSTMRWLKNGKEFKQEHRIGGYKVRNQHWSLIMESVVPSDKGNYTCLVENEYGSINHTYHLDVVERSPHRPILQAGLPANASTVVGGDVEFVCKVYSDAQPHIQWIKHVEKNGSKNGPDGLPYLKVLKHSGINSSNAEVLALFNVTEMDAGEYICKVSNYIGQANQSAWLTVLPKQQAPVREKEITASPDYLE
Briefly: ELISA, coated antigen, anti-Fab HRP. Background: In an ELISA, binding on a coated surface is turned into a signal by an enzyme label.
Take B1: a half-maximal response (EC50) required 0.308 nM.

Consider B2, for which the EC50 is 0.261 nM.

The molecule B3 came in with an EC50 of 0.289 nM.

For the molecule B4, the EC50 stood at 0.338 nM.

Molecule B5 returned a half-maximal effective concentration (EC50) of 0.293 nM.

With B6, the 50% effective concentration (EC50) came to 0.0908 nM.

Molecule B7 yielded a 50% effective concentration (EC50) of 0.29 nM.

B8 showed an EC50 of 0.296 nM.

Consider B9, for which the 50% effective concentration (EC50) stood at 0.262 nM.

The molecule B10 returned an EC50 of 0.27 nM.

As for B11, the response was half-maximal at 0.139 nM (EC50).

The molecule B12 had an EC50 of 0.25 nM.

With B13, the EC50 amounted to 0.274 nM.

B14: the concentration for a half-maximal effect (EC50) was 5.9 nM.

Consider B15, for which a half-maximal response (EC50) required 0.314 nM.

In turn, B16 gave an EC50 of 0.225 nM.

As for B17, a half-maximal effect (EC50) was put at 0.273 nM.

For the molecule B18, a half-maximal response (EC50) required 0.295 nM.

The target in another assay is T3, rhFGFR2IIIb-Fc (recombinant human FGFR2IIIb-Fc) (human, UniProt P21802-3 22-378, limits assumed).
T3 construct: Coated on the ELISA plate at 2 ug/mL; not shown: Fc part
T3 sequence (P21802 other isoform, or with tags, fused parts or gaps limits assumed): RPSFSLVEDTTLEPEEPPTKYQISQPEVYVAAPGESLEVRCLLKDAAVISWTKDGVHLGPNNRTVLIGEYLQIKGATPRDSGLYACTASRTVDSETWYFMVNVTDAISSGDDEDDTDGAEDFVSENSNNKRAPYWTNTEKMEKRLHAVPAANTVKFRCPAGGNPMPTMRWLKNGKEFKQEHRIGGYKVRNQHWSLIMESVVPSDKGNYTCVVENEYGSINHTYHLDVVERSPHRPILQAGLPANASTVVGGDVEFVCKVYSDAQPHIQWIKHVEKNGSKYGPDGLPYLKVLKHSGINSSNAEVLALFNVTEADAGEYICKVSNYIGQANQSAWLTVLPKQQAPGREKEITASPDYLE
Description: ELISA, coated rhFGFR2IIIb-Fc, anti-Fab HRP.
As for B1, the EC50 is 0.351 nM.

Turning to B2, the EC50 worked out at 0.621 nM.

In the case of B3, the EC50 turned out to be 0.324 nM.

On to B4, for which the EC50 stood at 0.697 nM.

Regarding B5, the EC50 was 0.724 nM.

Consider B6, for which the EC50 worked out at 0.643 nM.

As for B7, the concentration for a half-maximal effect (EC50) was determined as 0.582 nM.

For the molecule B8, the EC50 amounted to 0.903 nM.

Take B9: the concentration for a half-maximal effect (EC50) was 0.298 nM.

On to B10, for which the EC50 was determined as 0.626 nM.

Regarding B11, the EC50 amounted to 0.656 nM.

Take B12: the EC50 amounted to 1.01 nM.

Take B13: the EC50 was 1.21 nM.

Consider B14, for which the EC50 came out at 1.06 nM.

Consider B19, for which the EC50 stood at 1.68 nM.

For B15, the 50% effective concentration (EC50) worked out at 0.879 nM.

On to B20, for which the concentration for a half-maximal effect (EC50) was 1.89 nM.

B16: the EC50 was determined as 0.281 nM.

For the molecule B17, the concentration giving a half-maximal response (EC50) worked out at 0.877 nM.

In the case of B18, the 50% effective concentration (EC50) was 0.279 nM.
